Measured values taken from the supplement of paper PMC7125110.
± gives the standard error. For some of these results: Variants at the floor of the assay were thinned out.

B1: glmS ribozyme (parent)
chain: AUAAAAGCGCCAGAACUACAGAAAUGUAGUUGACGAGGAGGAGGUUUAUCGAAUUUUCGGCGGAUGCCUCCAAA

Legend:
Conditions in all cases: with glucosamine-6-phosphate
glucosamine-6-phosphate [1] = variants of: B1; test: kcat; higher = faster cleavage; RNA array
Method in brief: (§1)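 Tiles bearing barcoded ribozyme variants, transcribed in situ by E. coli RNA polymerase on sequenced MiSeq chips, were imaged over ~14 h at 37 °C using a hybridised Cy3 probe. Glucosamine-6-phosphate was supplied at 40 μM to 10 mM in HEPES/KCl/Mg(OAc)2 buffer. kobs came from one- or two-exponential decay fits to normalised per-tile medians, and weighted Michaelis–Menten fits then provided kcat and KM.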

glucosamine-6-phosphate [2] = variants of: B1; test: KM; higher = weaker cofactor use; RNA array
Method in brief: as §1

glucosamine-6-phosphate [3] = variants of: B1; test: self-cleavage kobs at 40 uM GlcN6P; higher = faster cleavage; RNA array
Method in brief: as §1

glucosamine-6-phosphate [4] = variants of: B1; test: self-cleavage kobs at 160 uM GlcN6P; higher = faster cleavage; RNA array
Method in brief: as §1

glucosamine-6-phosphate [5] = variants of: B1; test: self-cleavage kobs at 640 uM GlcN6P; higher = faster cleavage; RNA array
Method in brief: as §1

glucosamine-6-phosphate [6] = variants of: B1; test: self-cleavage kobs at 2500 uM GlcN6P; higher = faster cleavage; RNA array
Method in brief: as §1

glucosamine-6-phosphate [7] = variants of: B1; test: self-cleavage kobs at 10000 uM GlcN6P; higher = faster cleavage; RNA array
Method in brief: as §1

| Variant | kcat (glucosamine-6-phosphate [1]) [s⁻¹] | KM (glucosamine-6-phosphate [2]) [µM] | self-cleavage kobs at 40 uM GlcN6P (glucosamine-6-phosphate [3]) [s⁻¹] | self-cleavage kobs at 160 uM GlcN6P (glucosamine-6-phosphate [4]) [s⁻¹] | self-cleavage kobs at 640 uM GlcN6P (glucosamine-6-phosphate [5]) [s⁻¹] | self-cleavage kobs at 2500 uM GlcN6P (glucosamine-6-phosphate [6]) [s⁻¹] | self-cleavage kobs at 10000 uM GlcN6P (glucosamine-6-phosphate [7]) [s⁻¹] |
| --- | --- | --- | --- | --- | --- | --- | --- |
| A12C G66U | 0.00165 ± 0.00058 | 1990 ± 990 | 5.83e-05 ± 1.3e-05 | 9.73e-05 ± 1.3e-05 | 0.000586 ± 6.9e-05 | 0.000865 ± 0.00014 | 0.00133 ± 0.0002 |
| A36C U69C | 1.31e-05 ± 3.1e-06 | – | – | – | – | < 1e-05 | – |
| U65A G66C | 0.000476 ± 5.1e-05 | 1400 ± 320 | – | – | 0.000156 ± 3.2e-05 | 0.000267 ± 8.2e-05 | 0.000436 ± 8.9e-05 |
| U31C A33U | 1.97e-05 ± 2.4e-06 | – | – | – | – | – | 1.73e-05 ± 6e-06 |
| A14U U54C C67U | 0.00203 ± 0.00034 | 1680 ± 410 | 5.21e-05 ± 1.9e-05 | 0.000164 ± 2.3e-05 | 0.000887 ± 0.00023 | 0.00131 ± 0.00025 | 0.00163 ± 0.0003 |
| U49A C71U | 1.56e-05 ± 3.2e-06 | – | – | – | < 1e-05 | – | – |
| G29U U47G | 0.000866 ± 0.00021 | 1600 ± 640 | – | 0.00011 ± 2.1e-05 | 0.000215 ± 3.4e-05 | 0.000515 ± 0.00015 | 0.000787 ± 0.00012 |
| A14G G60A | 8.13e-05 ± 1.1e-05 | 3020 ± 1300 | – | – | – | 4.34e-05 ± 1.9e-05 | 6.17e-05 ± 1.2e-05 |
| A39C G40U | 0.000135 ± 1.1e-05 | 1690 ± 480 | – | – | 5.01e-05 ± 1.7e-05 | 7.56e-05 ± 9.8e-06 | 0.000118 ± 1e-05 |
| U30G A42U C67G | 0.00016 ± 2.9e-05 | – | – | – | 8.82e-05 ± 2.3e-05 | 0.000107 ± 2.9e-05 | 0.000167 ± 4.5e-05 |
| U54G C71G | 0.00104 ± 0.00019 | 511 ± 150 | 8.73e-05 ± 8.8e-06 | 0.000192 ± 4.6e-05 | 0.000398 ± 9e-05 | 0.000909 ± 0.0002 | 0.0011 ± 0.00012 |
| G40U U69C | 8.37e-05 ± 1.1e-05 | – | – | – | 6.56e-05 ± 2e-05 | 9.26e-05 ± 1.9e-05 | 7.39e-05 ± 1.2e-05 |
| G37C U47G | 1.63e-05 ± 2.9e-06 | – | – | – | – | – | – |
| C68U U69C | 8.69e-05 ± 6.8e-06 | 2850 ± 730 | – | – | – | 3.88e-05 ± 1.4e-05 | 6.79e-05 ± 1.1e-05 |
| A14U G66U | 0.000298 ± 3.6e-05 | 2140 ± 550 | – | 4.39e-05 ± 1.8e-05 | 6.34e-05 ± 1.1e-05 | 0.000175 ± 2.9e-05 | 0.000243 ± 2.6e-05 |
| A12C C68A | 2.22e-05 ± 4.9e-06 | – | < 1e-05 | < 1e-05 | – | 2.42e-05 ± 7.9e-06 | – |
| A14U A52U | 0.000167 ± 2.7e-06 | 2930 ± 110 | – | – | 3.02e-05 ± 7.3e-06 | 7.62e-05 ± 7.8e-06 | 0.000129 ± 1e-05 |
| C16U A33U | 0.000109 ± 1.2e-05 | 2420 ± 740 | – | – | 3.18e-05 ± 8.4e-06 | 5.09e-05 ± 6.2e-06 | 8.92e-05 ± 7.1e-06 |

| Variant | kcat (glucosamine-6-phosphate [1]) [s⁻¹] | KM (glucosamine-6-phosphate [2]) [µM] | self-cleavage kobs at 40 uM GlcN6P (glucosamine-6-phosphate [3]) [s⁻¹] | self-cleavage kobs at 160 uM GlcN6P (glucosamine-6-phosphate [4]) [s⁻¹] | self-cleavage kobs at 640 uM GlcN6P (glucosamine-6-phosphate [5]) [s⁻¹] | self-cleavage kobs at 2500 uM GlcN6P (glucosamine-6-phosphate [6]) [s⁻¹] | self-cleavage kobs at 10000 uM GlcN6P (glucosamine-6-phosphate [7]) [s⁻¹] |
| --- | --- | --- | --- | --- | --- | --- | --- |
| A15U G40C | 0.000282 ± 2.6e-05 | 1070 ± 230 | – | 3.7e-05 ± 1.5e-05 | 0.00011 ± 1.4e-05 | 0.000162 ± 3.3e-05 | 0.000269 ± 3e-05 |
| U46C U55C | 0.00703 ± 0.0025 | 3630 ± 1700 | 0.000129 ± 1.9e-05 | 0.000217 ± 4.2e-05 | 0.00108 ± 0.00013 | 0.00291 ± 0.00042 | 0.00515 ± 0.00071 |
| A42U A53C | 0.000148 ± 2.3e-05 | 3050 ± 1500 | – | – | – | 7.29e-05 ± 2e-05 | 0.000113 ± 1.6e-05 |
| C8U A36C | < 1e-05 | – | – | – | – | – | < 1e-05 |
| U30C C67G C68A | 1.14e-05 ± 4e-06 | – | < 1e-05 | – | – | – | < 1e-05 |
| C50A C71G | 1.89e-05 ± 5.7e-06 | – | – | – | – | – | – |
| A14U A39C | 0.00121 ± 0.00019 | 2790 ± 700 | 2.83e-05 ± 7.2e-06 | 7.69e-05 ± 1.2e-05 | 0.000203 ± 2.4e-05 | 0.000537 ± 8.2e-05 | 0.000981 ± 9.1e-05 |
| G44C A52G | < 1e-05 | 279 ± 110 | < 1e-05 | < 1e-05 | < 1e-05 | – | – |
| G38A A52C C70A | 1.15e-05 ± 3.5e-06 | – | – | – | – | – | – |
| G37A G41C | 2.41e-05 ± 9.5e-06 | – | – | – | – | 3.87e-05 ± 1.5e-05 | – |
| G32C G51U | < 1e-05 | – | – | – | – | – | – |
| C11A A15U U65G C71U | < 1e-05 | – | – | – | – | – | – |
| G40U A52U | 0.000102 ± 6.2e-06 | 2510 ± 550 | – | – | – | 4.82e-05 ± 9.8e-06 | 8.17e-05 ± 6.8e-06 |
| G38U | < 1e-05 | – | – | – | – | – | – |
| A42G C71U | 0.0155 ± 0.0039 | 732 ± 250 | 0.000864 ± 0.0001 | 0.00294 ± 0.00058 | 0.0053 ± 0.0011 | 0.0147 ± 0.0047 | 0.0178 ± 0.0034 |
| C67G U69C | 0.00123 ± 0.00012 | 958 ± 170 | 5.09e-05 ± 1.4e-05 | 0.000179 ± 3.4e-05 | 0.000506 ± 9.2e-05 | 0.00077 ± 0.00014 | 0.00127 ± 0.0002 |
| U30G A52U | 6.83e-05 ± 9.4e-06 | – | – | – | – | 4.14e-05 ± 1.5e-05 | 5.6e-05 ± 1e-05 |
| A52C U54G G63A | 1.25e-05 ± 2.6e-06 | – | – | – | – | < 1e-05 | < 1e-05 |
